Measured values published in the nanobody polyreactivity screen of Harvey et al. (2022).

Test: yeast display, Sf9 membrane polyspecificity reagent, FACS + sequencing; frameworks hold sequencing errors
Summary of the method: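 Using colony PCR, genes from sorted yeast display clones were amplified, then sequenced on MiSeq at 2 × 250 and filtered by CDR length. The clones had been stained with 10% biotinylated, detergent-solubilized Sf9 membrane reagent for 1 hour at 4 °C and sorted by FACS into low and high (top ~1%) gates on anti-HA and streptavidin fluorescence. Polyreactivity labels come from the gate of origin.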

| Sequence | polyreactivity (PSR sort gate) |
| --- | --- |
| QVQLVESGGGLFQAGGSLRLSCAASGSTFAVYAMGWYRQAPGKERELVAVISWSDGRTYYADSVKGRFTISRDNAKNTVYLQMNSLKPEDTAVYYCNARLDTFVPRYGYWGHGTQVTVSS | high polyreactivity |
| QVQLVESGGGLVQAGGSLRLSWAASGGPFSSYDMGWYRQAPGTERELVADITNGGSTNFADSVKGRCTISRDNAKNTVYLQMNSLKPEDTAVYYCATDSYPGLNPDFDYWGHGTQVTVSS | low polyreactivity |
| QVHLVESGGGLVQAGGSLRLSCDASGITFRRYGMGWYRQAPGKERELVATITSSVGSRTYYADSVKGRFTISRDNAKNTVYLQMNSLKPEDTAVYYCAADHRVYDYEYWGQVTQVTVSS | low polyreactivity |
| QVQLVESGGGLVQAGGSLRLSCAASGRTFYQYGMGWYRQAPGKERELVAAISDSGGGTYYADSVKGRFTISRDNAKHTVYLQMNSLKPEDTAVYFCAATYVGPRRRYYYWGQGTQVTVSS | high polyreactivity |
| QVQLVESGGGLVQAGGSLRLSCAASGSIFRANVMGWYRQAPGKERELVASINSDDNTYYADSVKGRFTISRDNAKNTVYLQMKRLKPEDSAVYYCYSEWGLFYDWTVLHMYLDGYYYWGQGTEVTVSS | low polyreactivity |
| QVQLVESGGGLVQAGGSLRLSCAASGSIFFIYDMGWYRQAPGKERELVADITSGGGSTFYADSVKGRFTISRDNAKNTVYLQMNRLKPEVSAVYYCATDDHDQPGGQLYITEVNYWGQGTQVTVSS | low polyreactivity |
| QVQLVESGGGLVQAGGSLRLSCAASGSTFYYYTMGCYRQAPGKEREFVAAITRSGGSTYYADSVKGRFTISRDNAKNTVYLQMNSLKPEDTAVYYCAATRQRVKSEYWGQGTQVTVSS | low polyreactivity |
| QVQLVESGGGLVQAGGSLRLSCADSGSTFYYYAMGWYRQAPGKERELVAAISTSGGSTYYADSVKGRFTISRDNAKNTVYFQMNSLKPEDTAVYYCAARYRRGMGYWGQGTQVTVSS | high polyreactivity |
| QVQLVESGGGLVQAGGSLRLSCAASGSIFTNNAMGWYRHAPGKERELVAAISRGGSTYYADSVKGRFTISRDIAKNTDFIQMNSLIPEDTAVYYCNARRYRHDGYWGQGTQVTVSS | high polyreactivity |
| QVHLVESGGGLVQAGGSLRLSCAASGFTFGPYAMGWYRQAPGKERELVAGITWSGASTYYADSVKGRFTISRDNAKNTVYLQMNSLKPEDTAVYYCARYYRLGSRYDYWGQGTQVTLSS | low polyreactivity |
| QVQLVESGGGLVQAGGSLRLSCAASGSIFALYAMGWYRQAPGKERELVAAISNTGGSTYYADSVKGRFTISRDNAKNTVYLQMNSLKPEDTAVYYCAARKARSSPRYYYWGQGTQVTVSS | high polyreactivity |
| QVQLVESGGGLFQAGGSLRLSCAASGSTLWRNAMGWYRQATGKERELVAAITRRGGITYYADSVKGRFTISRDNAKNTVYLQMNSLKPEDTAVYYCNAVRSTDGSDYWGQGTQVTVSS | high polyreactivity |
| QVQLEESGGGLVQAGGSLRLSCAASGFTFSTNSMGWYRPAPGKERELVAAISRGGSTNYADSVKGRFTISRDNAKNTVYLQMNSLKPEDTAVYYCNAYQSPDEEEYYWGQGTQVTVSS | low polyreactivity |
| QVQLVESGGGLVQAGGSLRLSCAASGYIFGHYTMGWYRPAPRKERELVAGITSGTRTYYADSVKGRFTISRDNAKNTVYLQMNSRKPDDTAVYYCAKRGPVRTQYTYYYWGQGTQVTVSS | high polyreactivity |
| QVQLVESWGGLDQAGGSLRLSCAASGRTIRRYAMGCYRQAPGKERELVASISTSGGSTNADSVKGRFTISRDNSKNTVYLQMNSLKPEDTAVYYCAVRYPRYVRNGDYWGQGTQVTVSS | high polyreactivity |
| QVQLVESGGGLVQAGGSLRLSCAASGGTFTIYAMGWYRQAPGKERELVATINRGDRTNYADSVKGRFTISRDNAKNTVYLQMNSLKPEDTAVYYCAADFYYWYRGVYFVTRNYYWGQGTQVTVSS | high polyreactivity |
| QVQLVESGGGLVQAGGRLRLSCAASGSIFAGYAMGWYRQAPGKERELVAASSTDYADSVKGRFTISRDNAKNTVYLHMNSLKPEDTAVYYCAKVGFGIPGGFYYWGQGTQVTVSS | low polyreactivity |
| QVQLVESGGGLVQAGGSLRLSCAASGFIFRRYAMGWYRQPPGKERELVAAISGSGGRTYYADSVKGRFTISRDNAKNTVYLQMNSLKPEDTAVYYCAADHGSLLYDYWGQGTQVTVSS | high polyreactivity |
| QVQLVYSGGGLVQAGGSLSLSCAASGSTIDGYAMGWYRQAPGKERELVAAISSSGASTYYADSVKGRFTISRDNAKNTVYLQMNSLKPEDTAVYYCNRVTCQQKNDYWGQGTQVTVSS | high polyreactivity |
| QVHLVESGGGLVQAGGSLRLSFAASGYTLSDNAMGWYRQAPGKERELVATIDFGGGSTYYADSVKGRFTISRDNAKNTVYLQRNSLKPEDTAVYYCNTEWTSLSTSSLGGRYDHWGQGTQVTVSS | low polyreactivity |
| QVQLVESGGGLVQAGGSLRLSCAASGSIFHTYAMGWYRKAPEKERELVAANTVSGGDTYYADSVKGRFTISRDNEKNTVYLQMNSLKAEDTAVYYCAVDTTTSYTVEYDYWGQGTQVTVSS | low polyreactivity |
| QVQLVESGGGLVQAGGSLRLSCAASGITFYGYTMGWYRQAPGKERELVATITRGGSTYYADSVKGRFTISRDNAKNSVYLQMNSLKPEDTAVYYCAADLKGNYYLGIARYVLYYWGQGTQVTVSS | low polyreactivity |

| Sequence | polyreactivity (PSR sort gate) |
| --- | --- |
| QVQLVESGGGLVQAGGRLRLSCAASGFIFRAYAMGWYRQAPGKERELVAAISRGGGTYYADSVKGRFTISRDNAKNTVYLQMNSLKPEDTAVYYCAVDLLRRGFTTVVTTYDYWGQGTQVTVSS | high polyreactivity |
| QVQLVESGGGLVQAGGRLRLSCAASGSIFASYALGWYRQAPGKERELVAVITRSGGSTYYADSVKGRFTISRDNAKNTVYLQMNSLKPEDTAVYYCAAQYGRTYYSRREYWGQGTQVTVSS | high polyreactivity |
| QVQLVESGGGLVQAGGSLRLSCAASGRTFRSYDMGWYRQAPGKERELVAAISEDGGYTYYADSVKGRFTISRDNAKITVYLQMNSLKPEDTAVYYCAKDRPGPLRWWFLYGYWGQGTQGTVSS | low polyreactivity |
| QVQLVESGGGLVQAGGSLRLSCAASGSIFGNTMGWYRQAPGKEWEFVAAISSTGGNTYYADSVKGRFTISRDNAKITVYLQMNSLKPEDTAVYYCNRRYRYRFGYWGQGTQVTVSS | high polyreactivity |
| QVQLVESGGGLVQAGGSLRLSCAASGRIFSEYAMGWYRQAPGKERELVAAISRRGGRTYYADSVKGRFTISRDNAKNTVYLQMNSLKPEETAVYYCAAKIIWFTIRHGSAGFKYWGQGTQVTVSS | high polyreactivity |
| QVQLVESGGGLVQAGGSLRLSCAASGRTYRRYAMGWYRQAPGKERELVASISRTGGSTYYADAVKRRYTISRDNAKNTVYLQMNSLKPVDTAVYYCNAGPSVGWYNYWGQGTQVSVSS | high polyreactivity |
| QVQLVESGGGLVQAGGSLRISSAASGLTFYRYAIGWYRQAPGKERELVAAIRSNVVTTYYADSVKGRFTISRDNAKNTVYLKMNSLKPEDTAVYYCAARFGRSAPPGYDYWGQGTQVTVSS | high polyreactivity |
| QVQLVESGGGLVQAGGSLRLSCAASGFTFKWYTRGWYRQAPGKERELVAAISTRGGSTYYADSVKGRFTISRDNAKNTVYLQMNSLKPEDTAVYYCAAVYRRGSGYDYWGQGTQVTVSS | high polyreactivity |
| QVQLVESGGGLVQAGGSLRLSCAASGFIFTYYAMGWYRQAPGKERELVAAITSGGSTNYADSVKGRFTISRDNAKITVYLQMNSLKPEDTAVYYCASRIYYGRFWYDYWGQGTQVTVSS | high polyreactivity |
| QVQLVESGGGLVQAGGSLRLSCAASGRIKYNVMGWYRQAPGKEMELVAAITRSAGRTYYADSVKGRFSISRDNAKNTVYLQMNSLKPEHTGGYYCAAQAERYGYVYWGQGTQVTVSS | low polyreactivity |
| QVQLVESGGGLVQAGGSLRVSCAASGNIFYYYAKGWSRQAPGKERELDAAISKRGGSTYYADSVKGRFTISRDIAKNTVYLQMNSLKTEVTAVYYCAADGGYADYDYWGQGTQVTVSS | high polyreactivity |
| QVQLEESGGGLVQAGGTLRLSCAASGSIFRNYAMGWYRQAPGKEWQLVAAISRSGTSTYYADSVKGRFTISRDNAKNTVYFQMNSLKPEDYAVYYCNARTYVAVGFNYWGQGTQVTVSS | high polyreactivity |
| QVQLVESGGGLVQAGGSLRLSCAASGRSIKYYAMGWYRQAPGKERELVAAIRSTGGSTYYADSVKGRFTISRDNAKNTVYLQMNSLKPEDTAVYYCNARRYPRYVFSRYVYWGQGTQVNVSS | high polyreactivity |
| QVQLVESGGGLVQAGGSLRLSCAASGFISYYYAMGWYRQAPGKEREFVAAITSSGGSTRYADSVKGRFSISRDNATNTVYLQMNSLKPEDTAVYYCAAGNPYFWPYDYWGQGTQVTVSS | low polyreactivity |
| QVQLVESGGGLFQAGGSLRISCAASGRTFWYYAMGWYRPAPGKERELVAAITRGTSTYADSVKGRYTISRDNAKNTVYLQMNSLKPEDTAVYYCATYFRVWYRSYDYWGQGTQVTVSS | high polyreactivity |
| QVQLVESGGGLVQAGGSLRLSCAASGRIFGVYTMGWYRQAPGKERELVAVISRRGGRTYYADSVKGRFTISRDNAKNTVYLQMNSLKPEDTAVYYCARDSTYSSYTSNDYWGQGTQVTVSS | high polyreactivity |
| QVQLVESGGGLVQAGGSLRLSCAASGSTFGVYAMGWYRQAPGKERELVAAISGSGAGTYYADSVKGRFTISRDNAKNTVYLQMNSLKPEDTAVYYFNKVSVRGQRYGYWGQGTQVTVSS | high polyreactivity |
| QVQLVESGGGLVQPGGSLRLSCAASGRTFVPYAMGWYRQAPGKEREFVAVITWGGGSTYYADSVKGRFTISRDNAKNTVYLQMNSLKPEDTAVYYCDARVYYHYDYWGQGTQVTVSS | high polyreactivity |
| QVQLVESGGGLVQAGGSLRLSCAASGFIFTIYAMGWYRQAPRKERELVAAITWNGGRTYYADSVKGRFTISRDNAKNTVYLQMISLKPEDTAVYYCAARYGRAYDYWGQGTQVTVSS | high polyreactivity |
| QVQLEESGGGLVQAGGSLRLSCAASGIIFRLYGMGWYRQAPGKEREFVATITWRGGRTNYADSVKGRFTISRDNAKNTVYLQMNSLTPEDTAVYYCANVVRYARSNEYDSSGQGTQVTVSS | low polyreactivity |
| QVQLVESGGGLVQAGGSLRLSCAASGSIFYDYAMGWYRQAPGKERELVATISSGGSTNYADSVKGRFTISRDNAKNTVYLQMNSLKPEDTAVYYCNVDGRRYPHEFDYWGQGTQVTVSS | low polyreactivity |
